Laboratory results taken from the supplement of paper PMC9876800.

System: peptide library, one residue held at a place counted from the S/T acceptor
Experiment: relative phosphorylation of the sub-library (ratio to the mean residue at this position); higher = residue favoured
Method in brief: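 Relative sub-library phosphorylation is the ratio of each sub-library's signal to the mean residue at that position. The signal came from phosphorimaging of spots on streptavidin membranes, quantified by densitometry, after purified recombinant kinases reacted with biotinylated degenerate peptide sub-libraries in 384-well plates. Reactions held 50 μM peptide and 50 μM ATP spiked with γ-32P-ATP for 90 min under kinase-specific conditions.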

Sequence of MAP3K7, construct: aa1-303, human (O43318 1-303, looked up): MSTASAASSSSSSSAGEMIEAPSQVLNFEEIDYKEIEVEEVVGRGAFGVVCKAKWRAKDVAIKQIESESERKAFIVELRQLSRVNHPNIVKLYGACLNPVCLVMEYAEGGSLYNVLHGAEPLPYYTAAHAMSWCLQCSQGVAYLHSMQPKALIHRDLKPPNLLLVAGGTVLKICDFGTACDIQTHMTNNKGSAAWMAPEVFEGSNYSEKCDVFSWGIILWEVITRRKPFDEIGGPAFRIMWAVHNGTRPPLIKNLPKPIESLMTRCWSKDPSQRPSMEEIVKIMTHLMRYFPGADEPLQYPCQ
Sequence of TBK1, construct: Full length, human (Q9UHD2 whole entry, looked up): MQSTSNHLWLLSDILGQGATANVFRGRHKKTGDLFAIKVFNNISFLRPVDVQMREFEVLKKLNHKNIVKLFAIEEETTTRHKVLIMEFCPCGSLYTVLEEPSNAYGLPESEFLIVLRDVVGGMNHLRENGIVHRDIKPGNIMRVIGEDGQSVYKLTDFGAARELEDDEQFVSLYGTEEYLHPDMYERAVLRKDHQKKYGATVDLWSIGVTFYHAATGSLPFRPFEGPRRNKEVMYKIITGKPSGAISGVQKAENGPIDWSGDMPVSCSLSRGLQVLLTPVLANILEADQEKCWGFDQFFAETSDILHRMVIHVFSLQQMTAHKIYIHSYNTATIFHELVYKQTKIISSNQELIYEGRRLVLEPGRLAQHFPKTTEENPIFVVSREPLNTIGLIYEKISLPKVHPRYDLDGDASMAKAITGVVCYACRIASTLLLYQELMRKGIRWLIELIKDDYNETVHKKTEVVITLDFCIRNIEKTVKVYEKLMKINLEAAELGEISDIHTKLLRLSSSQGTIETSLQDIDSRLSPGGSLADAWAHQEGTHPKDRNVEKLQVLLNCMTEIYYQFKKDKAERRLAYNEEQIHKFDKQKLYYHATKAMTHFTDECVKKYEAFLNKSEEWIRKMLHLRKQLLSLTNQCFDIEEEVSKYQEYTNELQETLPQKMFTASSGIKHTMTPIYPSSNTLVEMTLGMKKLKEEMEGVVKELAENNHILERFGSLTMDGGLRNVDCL
Sequence of UHMK1, construct: Full length, rat (Q63285 whole entry, looked up): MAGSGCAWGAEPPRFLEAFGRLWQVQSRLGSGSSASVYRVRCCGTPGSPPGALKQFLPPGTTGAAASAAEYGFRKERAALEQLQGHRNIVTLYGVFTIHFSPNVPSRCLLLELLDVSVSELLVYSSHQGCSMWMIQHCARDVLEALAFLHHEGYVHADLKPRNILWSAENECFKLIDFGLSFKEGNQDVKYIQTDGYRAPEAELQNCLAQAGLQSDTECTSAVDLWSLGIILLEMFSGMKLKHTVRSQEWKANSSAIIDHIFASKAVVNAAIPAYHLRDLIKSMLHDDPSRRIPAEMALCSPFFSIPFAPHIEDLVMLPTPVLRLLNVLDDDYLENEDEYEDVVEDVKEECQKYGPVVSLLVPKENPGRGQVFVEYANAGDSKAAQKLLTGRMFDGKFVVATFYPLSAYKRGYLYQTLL

TBK1, construct: Full length, human (from UniProt Q9UHD2)
relative phosphorylation
Conditions	at +1	at +2	at +3	at +4	at -1	at -2	at -3	at -4	at -5
A fixed	0.37	1.01	0.9	0.857	1.09	0.967	1.04	1.04	1.06
D fixed	0.296	0.857	0.879	0.864	0.882	1.15	1.27	1.29	1.16
E fixed	0.214	0.903	0.869	0.945	0.855	1.06	1.32	1.13	1.18
F fixed	1.85	1.22	1.31	1.23	0.885	1.33	0.781	0.789	0.923
G fixed	0.548	0.851	0.974	0.897	0.814	1.12	1.56	1.19	1.19
H fixed	0.557	1.09	1.16	1.05	1.11	1.06	1.08	1.04	1.21
I fixed	2.31	1.23	0.75	1.12	0.853	0.589	0.68	0.789	0.771
K fixed	0.249	0.616	0.555	0.768	1.13	0.613	0.985	1.07	1.19
L fixed	3.03	1.22	1.04	1.09	1.06	0.864	0.568	0.903	0.805
M fixed	2.85	1.27	1.1	1.14	1.29	1.16	0.928	0.998	0.8
N fixed	0.349	1.02	0.962	0.876	0.957	0.883	1.09	1.2	1.09
P fixed	0.178	0.765	1.16	1.04	1.26	1.83	1.24	1.08	0.981
Q fixed	0.333	1.06	0.884	0.921	1.05	0.928	1.24	1.03	1.03
R fixed	0.255	0.858	0.602	0.743	1.05	0.666	1	0.997	1.12
V fixed	0.957	1.3	0.974	0.889	0.834	0.658	0.7	0.721	0.784
W fixed	1.41	0.804	1.33	1.36	0.75	0.748	0.711	0.877	0.857
Y fixed	1.24	0.931	1.54	1.22	1.12	1.39	0.812	0.861	0.859
pThr fixed	0.465	0.783	0.625	0.849	0.582	0.817	1.14	1.01	1.06
pTyr fixed	0.494	0.785	0.848	0.779	1.07	1.46	1.32	1.03	1.11

MAP3K7, construct: aa1-303, human (from UniProt O43318)
relative phosphorylation
Conditions	at +1	at +2	at +3	at +4	at -1	at -2	at -3	at -4	at -5
A fixed	0.455	0.709	0.902	0.855	0.708	0.979	1.18	0.95	1.05
D fixed	0.391	1.03	0.996	0.885	1.18	0.533	0.857	1.69	1.56
E fixed	0.668	0.547	0.878	0.898	0.687	0.863	0.662	1.33	1.17
F fixed	1.44	0.608	0.93	0.735	1.01	1.14	0.818	0.938	0.891
G fixed	0.565	0.809	1.39	1.18	0.528	0.592	0.714	1.14	1.04
H fixed	0.914	1.42	1.1	1.11	1.23	1.42	1.1	1.05	1.07
I fixed	1.41	0.623	0.714	0.921	0.888	1.2	1.14	0.872	0.781
K fixed	0.409	2.3	1.33	1.42	0.752	0.581	0.752	0.734	0.885
L fixed	2	0.608	0.821	0.949	1.57	1.01	1.13	0.834	0.77
M fixed	1.55	0.786	0.968	0.897	1.41	1.31	0.999	0.9	0.884
N fixed	2.36	1.44	1.07	0.959	1.13	0.633	0.649	0.962	0.987
P fixed	0.206	0.741	0.892	1.29	0.348	0.537	0.854	0.807	1.06
Q fixed	1.17	0.78	0.93	0.993	0.866	0.785	0.65	0.818	0.818
R fixed	0.597	2.39	1.33	1.29	1.02	1	1.54	0.795	0.994
V fixed	0.914	0.758	0.874	0.836	0.768	1.07	1	0.934	0.894
W fixed	0.963	0.646	0.969	0.923	1.2	1.31	1.37	1.14	1.07
Y fixed	0.979	0.804	0.903	0.866	1.7	2.04	1.58	1.11	1.08
pThr fixed	0.898	1.36	1.33	0.99	1.03	1.41	1.53	1.4	1.14
pTyr fixed	0.431	0.475	0.716	0.689	1.07	1.01	0.786	0.912	1.09

UHMK1, construct: Full length, rat (from UniProt Q63285)
relative phosphorylation
Conditions	at +1	at +2	at +3	at +4	at -1	at -2	at -3	at -4	at -5
A fixed	0.707	1.1	1.58	1.14	1.16	1.12	0.872	0.961	0.981
D fixed	0.246	0.442	0.33	0.594	1.67	3.17	3.13	1.43	1.11
E fixed	0.266	0.515	0.397	1.54	0.818	1.86	2.01	1.14	1.02
F fixed	0.343	1.09	1.12	0.824	0.666	0.678	0.626	0.742	0.715
G fixed	0.86	1.08	0.906	0.915	1.54	1.22	1.11	1.02	0.994
H fixed	0.349	0.936	0.99	0.78	0.872	0.714	0.822	0.872	1.45
I fixed	0.665	1.18	0.77	1.36	0.636	0.663	0.704	0.917	0.931
K fixed	0.437	1.07	0.477	0.761	0.939	0.636	0.625	1.15	1.64
L fixed	0.363	1.02	0.872	0.86	0.808	0.677	0.672	0.95	1.22
M fixed	0.362	0.76	0.601	0.847	0.73	0.599	0.647	0.703	0.748
N fixed	0.299	0.664	0.402	0.588	1.36	0.945	1.09	1.28	1.18
P fixed	10.2	2.02	4.75	1.07	1.9	1.37	1.17	1.16	0.952
Q fixed	0.321	0.729	0.447	1.46	0.957	0.693	0.801	0.769	0.669
R fixed	0.388	0.958	0.829	0.681	0.81	0.592	0.674	0.677	0.749
V fixed	0.475	1.37	0.887	1.89	0.763	0.786	0.69	0.734	0.758
W fixed	0.362	0.831	0.732	0.792	0.681	0.631	0.665	1.79	1.13
Y fixed	0.337	1.25	0.91	0.891	0.687	0.642	0.685	0.712	0.749
pThr fixed	0.306	0.654	0.572	0.747	1.2	5.01	2.73	1.9	2.82
pTyr fixed	0.357	0.536	0.505	1.06	0.702	2.41	2.11	1.36	0.883
